Data from article PMC10380293 (International Journal of Molecular Sciences, 2023).
Values joined by “and” are separate entries in the source; they are usually repeats but may differ in a detail not shown here. Identical values can stand only once.

How the values were obtained:
[1] = target: mScarlet-I-PCNA^C148S (human, UniProt P12004 1-261, C148S); experiment: FRET or BRET; 1 µM p15-mNeonGreen (donor) with 0-3.09 µM mScarlet-I-PCNA (acceptor, protomer concentration) in PBS with 1 mM DTT, 37 °C for 1 h, 384 well plate; sensitized emission by the three-channel method, control mNeonGreen/mScarlet-I-PCNA subtracted; apparent for C148S; settings: both partners purified
[2] = target: mScarlet-I-PCNA (human, UniProt P12004 1-261); experiment: FRET or BRET; competition: 1 µM p15-mNeonGreen and 1 µM mScarlet-I-PCNA with varying inhibitor (0-100 µM p15^51-70, 0-20 µM unlabeled PCNA), 1 h at 37 °C, PBS with 1 mM DTT; sensitized emission; Ki by the Cheng-Prusoff equation; settings: both partners purified
Sequence of mScarlet-I-PCNA (P12004 whole entry): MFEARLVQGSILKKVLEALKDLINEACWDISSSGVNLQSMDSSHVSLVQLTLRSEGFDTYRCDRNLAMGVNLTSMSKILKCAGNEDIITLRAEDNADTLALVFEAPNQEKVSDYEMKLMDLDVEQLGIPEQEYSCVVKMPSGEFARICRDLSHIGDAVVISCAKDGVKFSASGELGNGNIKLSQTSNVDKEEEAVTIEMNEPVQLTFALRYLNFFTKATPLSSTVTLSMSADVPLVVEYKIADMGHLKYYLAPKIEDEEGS

Sequence of mScarlet-I-PCNA^C148S (P12004 whole entry C148S): as the sequence (P12004 whole entry) above, with C148S counted along it

B1: p15-mNeonGreen (natural protein, UniProt Q15004 1-111, looked up)
chain: MVRTKADSVPGTYRKVVAARAPRKVLGSSTSATNSTSVSSRKAENKYAGGNPVCVRPTPKWQKGIGEFFRLSPKDSEKENQIPEEAGSSGLGKAKRKACPLQPDHTNDEKE
Kd [1]: 3.09 µM

NPVCVRPTPKWQKGIGEFFR [peptide p15^51–70]
IC50 [2]: 9.81 µM | Ki [2]: 2.94 µM and 2.99 µM
